Several values for one entry are separate records, joined by “and”; a condition that tells them apart may be missing. Equal values may be shown once.
Experiments:
[1] = molecular target: A122N/G124S/A175S-FVIIa (human)
[2] = molecular target: A122N/G124S/A175S/Q286R-FVIIa (human)
[3] = molecular target: A122N/G124S/A175S/Q286R/M298Q-FVIIa (human)
[4] = molecular target: A122N/G124S/A175S/Q286R/M298Q/H373F-FVIIa (human)
[5] = molecular target: A122N/G124S/A175S/Q366V-FVIIa (human)
[6] = molecular target: A122N/G124S/A175S/S222A/H257A/Q286R/M298Q-FVIIa (human)
[7] = molecular target: Gla swap FIX-FVIIa (human)
[8] = molecular target: Gla swap FIX/A122N/G124S/A175S/S222A/Q286R-FVIIa (human)
[9] = molecular target: Gla swap FIX/Q286R/M298Q-FVIIa (human)
[10] = molecular target: Gla swap FIX/S222A/Q286R/M298Q-FVIIa (human)
[11] = molecular target: Gla swap FIX/S222A/T239V/Q286R-FVIIa (human)
[12] = molecular target: Gla swap FIX/S52A/S60A/Q286R/M298Q-FVIIa (human)
[13] = molecular target: Gla swap FIX/T128N/P129A/Q286R/M298Q-FVIIa (human)
[14] = molecular target: Gla swapFIX/Q366V-FVIIa (human)
[15] = molecular target: GlaSwapFIX/S222A/T239I/Q286R-FVIIa (human)
[16] = molecular target: H257A/Q286R/M298Q-FVIIa (human)
[17] = molecular target: K109N/A175S-FVIIa (human)
[18] = molecular target: M298Q/H373F-FVIIa (human)
[19] = molecular target: M298Q/Q366N/H373F-FVIIa (human)
[20] = molecular target: Q286R/H373F-FVIIa (human)
[21] = molecular target: Q286R/M298Q-FVIIa (human)
[22] = molecular target: S119N/L121S/A175S-FVIIa (human)
[23] = molecular target: S222A/H257A/Q286R/M298Q-FVIIa (human)
[24] = molecular target: S222A/Q286R/M298Q/H373F-FVIIa (human)
[25] = molecular target: S222A/T239I-FVIIa (human)
[26] = molecular target: S222A/T239I/H257A/Q286R/M298Q-FVIIa (human)
[27] = molecular target: S52A/S60A/Q286R-FVIIa (human)
[28] = molecular target: S52A/S60A/S222A/H257A/Q286R/M298Q-FVIIa (human)
[29] = molecular target: S52A/S60A/V158D/E296V/M298Q-FVIIa (human)
[30] = molecular target: T128N/P129A/A175S/Q286R-FVIIa (human)
[31] = molecular target: T128N/P129A/A175S/Q286R/M298Q/H373F-FVIIa (human)
[32] = molecular target: T128N/P129A/M298Q-FVIIa (human)
[33] = molecular target: T128N/P129A/Q286R-FVIIa (human)
[34] = molecular target: T128N/P129A/Q286R/M298Q/H373F-FVIIa (human)
[35] = molecular target: T128N/P129A/S222A-FVIIa (human)
[36] = molecular target: T128N/P129A/T239I/Q286R/M298Q-FVIIa (human)
[37] = molecular target: T128N/P129A/T239I/Q286R/M298Q/H373F-FVIIa (human)
[38] = molecular target: T128N/P129A/T239V/Q286R/M298Q/H373F-FVIIa (human)
[39] = molecular target: T239I/M298Q/H373F-FVIIa (human)
[40] = molecular target: T239I/Q286R-FVIIa (human)
[41] = molecular target: T239I/Q286R/M298Q/H373F-FVIIa (human)
[42] = molecular target: T239V/Q286R-FVIIa (human)
[43] = molecular target: T239V/Q286R/H373F-FVIIa (human)
[44] = molecular target: T239V/Q286R/M298Q-FVIIa (human)
[45] = molecular target: V158D/Q286R/E296V/M298Q-FVIIa (human)
[46] = molecular target: V158D/Q286R/E296V/M298Q/H373F-FVIIa (human)
[47] = molecular target: V158D/T239V/E296V/M298Q-FVIIa (human)
[48] = molecular target: {Gla swap FIX/E40L}/Q286R/M298Q-FVIIa (human)
[49] = molecular target: {Gla swap FIX/K43I}/Q286R/M298Q-FVIIa (human)
[50] = molecular target: {Gla swap FIX/K43I}/Q286R/M298Q/Q366N-FVIIa (human)
[51] = molecular target: {Gla swap FIX/M19K/E40L/K43I/Q44S}/Q286R/M298Q-FVIIa (human)
[52] = molecular target: {Gla swap FIX/Q44S}/Q286R/M298Q-FVIIa (human)

Sequence of antithrombin III (P01008 33-464): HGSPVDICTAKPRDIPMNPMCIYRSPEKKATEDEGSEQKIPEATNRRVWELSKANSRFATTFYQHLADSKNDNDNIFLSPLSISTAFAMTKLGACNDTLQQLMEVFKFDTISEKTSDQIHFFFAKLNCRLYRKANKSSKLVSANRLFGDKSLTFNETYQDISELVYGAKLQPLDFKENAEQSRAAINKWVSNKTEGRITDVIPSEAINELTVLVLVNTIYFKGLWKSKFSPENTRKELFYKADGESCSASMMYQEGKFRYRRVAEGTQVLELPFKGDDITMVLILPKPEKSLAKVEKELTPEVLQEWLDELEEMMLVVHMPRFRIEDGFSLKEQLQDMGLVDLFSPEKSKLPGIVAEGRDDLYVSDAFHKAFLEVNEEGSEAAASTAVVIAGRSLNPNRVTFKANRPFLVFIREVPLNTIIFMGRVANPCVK

- K0.5 [1]: 1350 nM
- K0.5 [2]: 6.92 µM
- K0.5 [3]: 1950 nM
- K0.5 [4]: 1000 nM
- K0.5 [5]: 336 nM
- K0.5 [6]: 2970 nM
- K0.5 [7]: 299 nM
- K0.5 [8]: 5.52 µM
- K0.5 [9]: 282 nM and 238 nM
- K0.5 [10]: 266 nM
- K0.5 [11]: 2440 nM
- K0.5 [12]: 254 nM
- K0.5 [13]: 508 nM and 325 nM
- K0.5 [14]: 108 nM
- K0.5 [15]: 3.31 µM
- K0.5 [16]: 391 nM
- K0.5 (H257S-FVIIa (human)): 723 nM
- K0.5 (K109N-FVIIa (human)): 330 nM
- K0.5 [17]: 2030 nM
- K0.5 [18]: 81.7 nM
- K0.5 [19]: 90.8 nM
- K0.5 (Q286R-FVIIa (human)): 1090 nM
- K0.5 [20]: 621 nM
- K0.5 [21]: 299 nM and 287 nM and 395 nM
- K0.5 [22]: 1640 nM
- K0.5 [23]: 314 nM
- K0.5 [24]: 163 nM
- K0.5 [25]: 1150 nM
- K0.5 [26]: 1220 nM
- K0.5 (S52A/S60A-FVIIa (human)): 361 nM
- K0.5 [27]: 1320 nM
- K0.5 [28]: 448 nM
- K0.5 [29]: 78.8 nM
- K0.5 [30]: 9.55 µM
- K0.5 [31]: 1130 nM
- K0.5 [32]: 144 nM
- K0.5 [33]: 1650 nM and 1740 nM
- K0.5 [34]: 183 nM
- K0.5 [35]: 401 nM
- K0.5 [36]: 917 nM
- K0.5 [37]: 317 nM
- K0.5 [38]: 121 nM
- K0.5 [39]: 179 nM
- K0.5 [40]: 5.82 µM
- K0.5 [41]: 370 nM
- K0.5 [42]: 1790 nM
- K0.5 [43]: 631 nM
- K0.5 [44]: 3.63 µM
- K0.5 [45]: 85 nM
- K0.5 [46]: 62.1 nM
- K0.5 [47]: 67.7 nM and 67.1 nM
- K0.5 (wild-type FVIIa (human)): 394 nM and 503 nM
- K0.5 [48]: 287 nM
- K0.5 [49]: 244 nM and 219 nM
- K0.5 [50]: 404 nM
- K0.5 [51]: 339 nM
- K0.5 [52]: 271 nM
Substance: antithrombin III

Reference: US20090291890A1 (published 2009)
